Assay results taken from CN116023497A (WEST CHINA HOSPITAL SICHUAN UNIV, dated 2023).

How the values were obtained:
[1] = target: T1, DDR2胞外段 (UniProt Q16832 22-399); experiment: ELISA, coated DDR2 ECD, dilution series of Tytug
T1 construct: range 22-399; also called DDR2 ECD
T1 sequence (looked up): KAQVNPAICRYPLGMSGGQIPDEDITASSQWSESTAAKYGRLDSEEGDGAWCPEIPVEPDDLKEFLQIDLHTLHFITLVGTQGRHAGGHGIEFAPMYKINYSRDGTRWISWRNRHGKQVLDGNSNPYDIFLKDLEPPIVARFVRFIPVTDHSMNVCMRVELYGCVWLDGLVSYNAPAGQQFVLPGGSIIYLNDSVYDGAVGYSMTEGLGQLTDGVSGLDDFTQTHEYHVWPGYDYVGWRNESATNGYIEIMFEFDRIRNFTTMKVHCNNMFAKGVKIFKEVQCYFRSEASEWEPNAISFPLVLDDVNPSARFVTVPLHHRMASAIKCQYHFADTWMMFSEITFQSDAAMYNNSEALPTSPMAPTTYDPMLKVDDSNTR

[2] = target: T2, DDR1胞外段(DDR1 ECD), His标签 (human); experiment: SPR (Biacore), 1:1 model; His-tagged DDR1 ECD on NTA chip, Tytug as analyte
T2 chain: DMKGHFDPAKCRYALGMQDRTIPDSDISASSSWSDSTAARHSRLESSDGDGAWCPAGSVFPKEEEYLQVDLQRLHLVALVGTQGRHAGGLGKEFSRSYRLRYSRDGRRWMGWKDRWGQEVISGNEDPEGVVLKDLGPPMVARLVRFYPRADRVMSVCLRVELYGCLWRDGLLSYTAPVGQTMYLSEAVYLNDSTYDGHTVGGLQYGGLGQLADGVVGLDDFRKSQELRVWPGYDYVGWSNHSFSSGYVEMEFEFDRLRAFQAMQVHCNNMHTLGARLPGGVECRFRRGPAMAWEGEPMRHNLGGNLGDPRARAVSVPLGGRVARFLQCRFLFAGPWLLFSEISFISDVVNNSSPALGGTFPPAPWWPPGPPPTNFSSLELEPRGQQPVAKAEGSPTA

[3] = target: T2, DDR1胞外段(DDR1 ECD), His标签; experiment: SPR (Biacore), 1:1 model; His-tagged DDR1 ECD on NTA chip, Tytug as analyte; exponent printed without minus sign, kd/ka gives 2.26e-10

- binding result [1]: no binding
- koff [2]: 4.66e-05 s⁻¹
- kon [2]: 207000 M⁻¹ s⁻¹
- Kd [3]: 0.226 nM
B1: Tytug抗体 (antibody, IgG1, V domains shown)
VH: QVQLQQPGAELVRPGSSVRLSCKASGYSFTSYWMNWVKQRPGQGLEWIGMIHPSDSKTRLDQKFKDKATLTVDKSSSTAYMQLSSPTSEDSAVYYCAREGTYYYAMDFWGQGTSVTVSS
VL: DVLMTQTPLSLPVSLGDQASISCRSSQTIVHSNGNTYLEWYLQKPGQSPKLLIYKVSNRFSGVPDRFSGSGSGTDFTLKISRVEAEDLGVYYCFQGSHDPYTFGGGTKLEIK
notes: Mouse hybridoma monoclonal antibody; also called T4-E11-F10; T4-E11-F10(Tytug)
